What was measured:
[1] = biological target: T1, cynomolgus monkey 4-1BB on CHO-K1 cells (cynomolgus monkey); test: FACS
T1 chain: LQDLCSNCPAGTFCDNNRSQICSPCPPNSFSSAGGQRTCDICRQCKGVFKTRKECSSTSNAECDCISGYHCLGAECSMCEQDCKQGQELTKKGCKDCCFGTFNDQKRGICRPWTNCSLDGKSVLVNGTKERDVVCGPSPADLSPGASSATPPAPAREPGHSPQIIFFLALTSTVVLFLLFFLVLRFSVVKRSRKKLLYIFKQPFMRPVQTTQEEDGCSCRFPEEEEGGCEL

[2] = biological target: human PD-L1 on CHO-K1 cells (human, UniProt Q9NZQ7 19-290); test: FACS
[3] = biological target: T2, human 4-1BB on CHO-K1 cells (human, UniProt Q07011 24-255); test: FACS
[4] = biological target: T1, cynomolgus monkey 4-1BB on CHO-K1 cells; test: FACS
[5] = biological target: T2, human 4-1BB on CHO-K1 cells; test: FACS; FIG. 11H
[6] = biological target: T1, cynomolgus monkey 4-1BB on CHO-K1 cells; test: FACS; FIG. 12G
[7] = biological target: T2, human 4-1BB on CHO-K1 cells; test: FACS; FIG. 11I
[8] = biological target: T2, human 4-1BB on CHO-K1 cells; test: FACS blocking of 4-1BBL; FIG. 14G
[9] = biological target: T1, cynomolgus monkey 4-1BB on CHO-K1 cells; test: FACS; FIG. 12H
[10] = biological target: T1, cynomolgus monkey 4-1BB on CHO-K1 cells; test: FACS; FIG. 12K
[11] = biological target: T2, human 4-1BB on CHO-K1 cells; test: FACS; FIG. 11L
Target sequence in this assay (Q07011 24-255): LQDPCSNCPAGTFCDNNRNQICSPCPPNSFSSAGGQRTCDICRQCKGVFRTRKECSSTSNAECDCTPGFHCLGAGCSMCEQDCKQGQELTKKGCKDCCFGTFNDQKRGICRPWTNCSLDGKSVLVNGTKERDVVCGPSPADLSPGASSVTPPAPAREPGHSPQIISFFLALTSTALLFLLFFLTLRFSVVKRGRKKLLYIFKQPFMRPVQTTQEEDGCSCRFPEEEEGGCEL

[12] = biological target: T2, human 4-1BB on CHO-K1 cells; test: FACS blocking of 4-1BBL
Target sequence in this assay (Q07011 24-255): as above

[13] = biological target: T2, human 4-1BB on CHO-K1 cells; test: FACS; FIG. 11J
[14] = biological target: T2, human 4-1BB on CHO-K1 cells; test: FACS blocking of 4-1BBL; FIG. 14H
[15] = biological target: T1, cynomolgus monkey 4-1BB on CHO-K1 cells; test: FACS; FIG. 12I
[16] = biological target: T1, cynomolgus monkey 4-1BB on CHO-K1 cells; test: FACS; FIG. 12F
[17] = biological target: T2, human 4-1BB on CHO-K1 cells; test: FACS; remark: listed apart in the source
Target sequence in this assay (Q07011 24-255): as above

[18] = biological target: T2, human 4-1BB on CHO-K1 cells; test: FACS blocking of 4-1BBL; FIG. 14F

Sequence of human PD-L1 on CHO-K1 cells (Q9NZQ7 19-290): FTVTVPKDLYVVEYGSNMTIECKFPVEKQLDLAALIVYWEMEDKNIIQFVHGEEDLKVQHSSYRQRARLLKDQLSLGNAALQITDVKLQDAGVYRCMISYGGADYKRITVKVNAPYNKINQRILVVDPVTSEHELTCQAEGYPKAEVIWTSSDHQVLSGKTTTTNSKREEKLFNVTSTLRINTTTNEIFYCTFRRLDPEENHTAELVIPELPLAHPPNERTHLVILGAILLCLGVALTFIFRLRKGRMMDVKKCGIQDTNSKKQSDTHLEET

B1: PR003549 (bispecific antibody)
light: DIQMTQSPSTLSASVGDRVTVTCRASQSIYIWLAWYQQKPGKAPNLLIYKASSLETGVPSRFSGSGSGTEFTLTISSLQPDDFATYYCQQYYGSSRTFGQGTKVEIKRTVAAPSVFIFPPSDEQLKSGTASVVCLLNNFYPREAKVQWKVDNALQSGNSQESVTEQDSKDSTYSLSSTLTLSKADYEKHKVYACEVTHQGLSSPVTKSFNRGEC
heavy: EVQLVESGGGLVQPGGSLRLSCAASGFTFSSYWMSWVRQAPGKGLEWVANIKQEGSEKYYVDSVKGRFTISRDNAKNSLYLQMNSLRAEDTAVYYCARDRAVAGAFDIWGQGTMVTVSSASTKGPSVFPLAPSSKSTSGGTAALGCLVKDYFPEPVTVSWNSGALTSGVHTFPAVLQSSGLYSLSSVVTVPSSSLGTQTYICNVNHKPSNTKVDKKVEPKSCDKTHTCPPCPAPEAAGGPSVFLFPPKPKDTLMISRTPEVTCVVVDVSHEDPEVKFNWYVDGVEVHNAKTKPREEQYNSTYRVVSVLTVLHQDWLNGKEYKCKVSNKALGAPIEKTISKAKGQPREPQVYTLPPSREEMTKNQVSLTCLVKGFYPSDIAVEWESNGQPENNYKTTPPVLDSDGSFFLYSKLTVDKSRWQQGNVFSCSVMHEALHNHYTQKSLSLSPGEPKSSDKTHTPPPPPRTEVQLLESGGGLVQLGGSLRLSCAASGFTFSRYAMTWVRQAPEKGLEWVSSISGSGDDTYYGDSVKGRFTISRDNSQNTVYLQMNSLRAEDTAVYFCAKEKAGTTGDYYYNVDVWGQGTTVTVSS
EC50 [1]: 1.86 nM | EC50 [2]: 1.56 nM | EC50 [3]: 1.9 nM

B2: PR004268 (bispecific antibody)
light: DIQMTQSPSTLSASVGDRVTVTCRASQSIYIWLAWYQQKPGKAPNLLIYKASSLETGVPSRFSGSGSGTEFTLTISSLQPDDFATYYCQQYYGSSRTFGQGTKVEIKRTVAAPSVFIFPPSDEQLKSGTASVVCLLNNFYPREAKVQWKVDNALQSGNSQESVTEQDSKDSTYSLSSTLTLSKADYEKHKVYACEVTHQGLSSPVTKSFNRGEC
heavy: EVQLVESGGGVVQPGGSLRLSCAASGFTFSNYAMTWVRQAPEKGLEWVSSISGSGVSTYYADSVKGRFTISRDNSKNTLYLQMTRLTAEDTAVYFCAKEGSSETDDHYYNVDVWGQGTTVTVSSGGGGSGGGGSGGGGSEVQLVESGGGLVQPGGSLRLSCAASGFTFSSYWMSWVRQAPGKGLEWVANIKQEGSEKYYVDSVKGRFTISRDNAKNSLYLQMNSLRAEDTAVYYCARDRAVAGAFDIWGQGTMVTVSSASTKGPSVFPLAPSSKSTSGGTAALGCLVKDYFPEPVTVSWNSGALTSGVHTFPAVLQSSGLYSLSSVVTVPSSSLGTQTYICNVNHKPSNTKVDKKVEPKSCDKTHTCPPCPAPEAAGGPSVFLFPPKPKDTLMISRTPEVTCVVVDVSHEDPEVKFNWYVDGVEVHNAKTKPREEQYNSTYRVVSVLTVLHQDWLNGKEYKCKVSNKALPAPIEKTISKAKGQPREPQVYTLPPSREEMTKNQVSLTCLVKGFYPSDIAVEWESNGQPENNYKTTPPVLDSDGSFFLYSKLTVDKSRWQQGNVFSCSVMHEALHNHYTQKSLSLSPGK
EC50 [2]: 1.2 nM | EC50 [4]: 0.621 nM

B3: PR003550 (bispecific antibody)
light: DIQMTQSPSTLSASVGDRVTVTCRASQSIYIWLAWYQQKPGKAPNLLIYKASSLETGVPSRFSGSGSGTEFTLTISSLQPDDFATYYCQQYYGSSRTFGQGTKVEIKRTVAAPSVFIFPPSDEQLKSGTASVVCLLNNFYPREAKVQWKVDNALQSGNSQESVTEQDSKDSTYSLSSTLTLSKADYEKHKVYACEVTHQGLSSPVTKSFNRGEC
heavy: EVQLVESGGGLVQPGGSLRLSCAASGFTFSSYWMSWVRQAPGKGLEWVANIKQEGSEKYYVDSVKGRFTISRDNAKNSLYLQMNSLRAEDTAVYYCARDRAVAGAFDIWGQGTMVTVSSASTKGPSVFPLAPSSKSTSGGTAALGCLVKDYFPEPVTVSWNSGALTSGVHTFPAVLQSSGLYSLSSVVTVPSSSLGTQTYICNVNHKPSNTKVDKKVEPKSCDKTHTCPPCPAPEAAGGPSVFLFPPKPKDTLMISRTPEVTCVVVDVSHEDPEVKFNWYVDGVEVHNAKTKPREEQYNSTYRVVSVLTVLHQDWLNGKEYKCKVSNKALGAPIEKTISKAKGQPREPQVYTLPPSREEMTKNQVSLTCLVKGFYPSDIAVEWESNGQPENNYKTTPPVLDSDGSFFLYSKLTVDKSRWQQGNVFSCSVMHEALHNHYTQKSLSLSPGEPKSSDKTHTPPPPPRTEVQLVESGGGVVQPGGSLRLSCAASGFTFSNYAMTWVRQAPEKGLEWVSSISGSGVSTYYADSVKGRFTISRDNSKNTLYLQMTRLTAEDTAVYFCAKEGSSETDDHYYNVDVWGQGTTVTVSS
EC50 [1]: 1.32 nM | EC50 [2]: 1.11 nM

B4: PR004469 (antibody, V domains shown)
VH: EVQLLESGGGLVQPGGSLRLSCAASGFTFSNYAMSWFRQPPETGLKWVSSIDASGGDTYYADSVKGRFTISRDNSKNTLYLQMNSLRAEDTAVYYCAKEGSHGTDDSHYDVDVWGQGTTVTVSS
EC50 [5]: 1.29 nM | EC50 [6]: 0.568 nM

B5: PR004270 (bispecific antibody)
chain 1: EVQLVESGGGLVQPGGSLRLSCAASGFTFSSYWMSWVRQAPGKGLEWVANIKQEGSEKYYVDSVKGRFTISRDNAKNSLYLQMNSLRAEDTAVYYCARDRAVAGAFDIWGQGTMVTVSSASTKGPSVFPLAPSSKSTSGGTAALGCLVKDYFPEPVTVSWNSGALTSGVHTFPAVLQSSGLYSLSSVVTVPSSSLGTQTYICNVNHKPSNTKVDKKVEPKSC
chain 2: not shown
EC50 [2]: 0.963 nM | EC50 [4]: 1.55 nM

B6: PR007288 (antibody, V domains shown)
VH: EVQLVESGGGLVKPGGSLRLSCAASGFTFSDYYMSWFRQAPGKGLEWVSYISGSGSIIDYADSVKGRFTISRDNAKNSLYLQMNSLRAEDTAVYYCSREREAVAGTLDFDYWGQGTLVTVSS
EC50 [7]: 1.21 nM | IC50 [8]: 1.63 nM | EC50 [9]: 0.903 nM

B7: PR007296 (antibody, V domains shown)
VH: EVQLVESGGGLVKPGGSLRLSCVASGFTFSDYYMSWFRQAPGKGLEWVSYISGSGTTIDYADSVKGRFTISRDNAKNSLYLQMNSLRAEDTAVYYCAREREAVAGTLDFDNWGQGTPVTVSS
EC50 [10]: 3.28 nM | EC50 [11]: 3.81 nM | IC50 [12]: 4.19 nM

B8: PR007287 (antibody, V domains shown)
VH: EVQLEESGGGLVKPGGSLRLSCAASGFTFSDYYMSWFRQAPGKGLEWVSYISSSGSITDYADAVKGRFNISRDNAKNSLYLQMNSLRAEDTAVYYCAREREAVAGTLDFDNWGQGTLVTVSS
EC50 [7]: 1.55 nM | IC50 [8]: 2.55 nM | EC50 [9]: 1.17 nM

B9: PR007289 (antibody, V domains shown)
VH: EVQLVESGGGLVKPGGSLRLSCAASGFTFSDYYMSWFRQAPGKGLEWVSYISSSGSTQDYADSVKGRFTISRDNAKNSLYLQMNSLRAEDTAVYYCAREREPVAGTLDFDNWGQGTPVTVSS
EC50 [13]: 2.49 nM | IC50 [14]: 11 nM | EC50 [15]: 4.11 nM

B10: PR007290 (antibody, V domains shown)
VH: EVQLVESGGGVVQPGRSLRLSCAASGFTFSDYYMSWFRQAPGKGLEWVSYISSSGTTIDYADSVKGRFTISRDNAKNSLYLQMNSLRAEDTAVYYCAREREEVAGTLDFDYWGQGTPVTVSS
EC50 [13]: 2.02 nM | IC50 [14]: 5.11 nM | EC50 [15]: 2.5 nM

B11: PR001840 (antibody, V domains shown)
VH: EVQLVESGGGLVQPGGSLRLSCAASGFTFSSYWMHWVRQAPGKGLVWVSRINSDGSSTSYADSVQGRFTISRDNAKNTLYLQMNSLRAEDTAVYYCVRKGSSSYYHYSIEDDWGQGTLVTVSS
EC50 [16]: 1.25 nM | EC50 [17]: 0.37 nM | IC50 [18]: 2.58 nM

B12: PR007286 (antibody, V domains shown)
VH: EVQLVESGGGLVKPGGSLRLSCAASGFTFSDYYMSWIRQAPGKGLEWVSYISSSGSTIYYADSVKGRFTISRDNAKNSLYLQMNSLRAEDTAVYYCARVKPVAGTWDWFDPWGQGTPVTVSS
EC50 [7]: 4.37 nM | IC50 [8]: 7.54 nM | EC50 [9]: 4.61 nM

B13: PR007291 (antibody, V domains shown)
VH: EVQLVESGGGLVKPGGSLRLSCVTSGFTFSDYYMNWIRQAPGKGQEWVSYISGNGSTIYYADSVKGRFTISRDNAKNSLYLQMNSLRAEDTAVYYCARVRPGGSGNYWDWFDPWGQGTPVTVSS
EC50 [13]: 2.47 nM | IC50 [14]: 3.29 nM | EC50 [15]: 1.95 nM

B14: PR001837 (antibody, V domains shown)
VH: EVQLLESGGGLVQPGGSLRLSCEASGFTFSSYAMSWVRQAPEKGLEWVSSISGSGGSTFYADSVKGRFTISRDNSKNTLYLQMNSLRAEDTAVYYCAKEGTTETDDYHYNMDVWGQGTTVTVSS
EC50 [16]: 1.63 nM | EC50 [17]: 0.386 nM | IC50 [18]: 1.96 nM

From patent US20230242658A1 (published 2023)
